Laboratory results from article PMC2979009.

Biological target: subtilisin pS169 (A1C mutant of S189), labeled with Alexafluor 350 maleimide (Bacillus amyloliquefaciens)

Kd: < 1 nM
Substance: P1 (residues 1−77 of pG12), the prodomain product left after cleavage (domain or fragment)
